This is an account of results in the supplement of paper PMC10567573.

B1: NECAB1 (parent)
chain: FSPNSPQFNVSGPGLLEEDNQWMT
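Further: lentivirally expressed fusions sorted by FACS into six bins by GFP to DsRed ratio, PSI derived from sequencing read proportions per bin multiplied by bin number.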

In this data set the parent is B1. The data set is described as follows: protein stability index of a GFP-peptide fusion (GPS, HEK-293T) (PSI 1-6); higher = more stable. The conditions noted are these: c terminus: a fixed tail appended.
FSPNSPQFNVVGPGLLEEDNQWMT: the protein stability index came out at 2.51.
With FSPNSPQFNVYGPGLLEEDNQWMT, the protein stability index was 1.95.
Take FSPNSPQFNVEGPGLLEEDNQWMT: the protein stability index stood at 3.4.
Consider FSPNSPQFNVCGPGLLEEDNQWMT, for which the protein stability index was 2.54.
Take FSPNSPQFNVMGPGLLEEDNQWMT: the protein stability index worked out at 2.16.
For the variant FSPNSPQFNVAGPGLLEEDNQWMT, the protein stability index was 3.02.
Consider FSPNSPQFLVSGPGLLEEDNQWMT, for which the protein stability index worked out at 2.12.
Regarding FSPNSPQFPVSGPGLLEEDNQWMT, the protein stability index amounted to 3.06.
For FSPNSPQFAVSGPGLLEEDNQWMT the value was 2.35.
For FSPNSPQFTVSGPGLLEEDNQWMT the value was 2.62; for FSPNSPQFIVSGPGLLEEDNQWMT, 2.05.
As for FSPNSPQFQVSGPGLLEEDNQWMT, the protein stability index is 2.67.
Regarding FSPNSPQFGVSGPGLLEEDNQWMT, the protein stability index came to 3.23.
For FSPNSPQFKVSGPGLLEEDNQWMT the value was 2.84; for FSPNSPQFHVSGPGLLEEDNQWMT, 2.22; for FSPNSPQFYVSGPGLLEEDNQWMT, 3.54.
As for FSPNSPQFEVSGPGLLEEDNQWMT, the figure is 3.77; as for FSPNSPQFSVSGPGLLEEDNQWMT, 2.84; as for FSPNSPQFMVSGPGLLEEDNQWMT, 2.42.
As for FSPNSPQFWVSGPGLLEEDNQWMT, the figure is 2.41; as for FSPNSPQFCVSGPGLLEEDNQWMT, 2.13.
As to FSPNSPQFDVSGPGLLEEDNQWMT, the protein stability index was found to be 3.67.
In the case of FSPNSPQFRVSGPGLLEEDNQWMT, the protein stability index turned out to be 2.32.
FSPNSPQFVVSGPGLLEEDNQWMT: the protein stability index was 2.09.
As to FSPNSLQFNVSGPGLLEEDNQWMT, the protein stability index was found to be 2.51.
Consider FSPNSQQFNVSGPGLLEEDNQWMT, for which the protein stability index turned out to be 2.48.
With FSPNSSQFNVSGPGLLEEDNQWMT, the protein stability index came out at 2.62.
As for FSPNSNQFNVSGPGLLEEDNQWMT, the protein stability index worked out at 2.56.
Take FSPNSIQFNVSGPGLLEEDNQWMT: the protein stability index came to 2.34.
Regarding FSPNSFQFNVSGPGLLEEDNQWMT, the protein stability index worked out at 2.28.
For FSPNSHQFNVSGPGLLEEDNQWMT the value was 2.14; for FSPNSWQFNVSGPGLLEEDNQWMT, 4.26.
With FSPNSAQFNVSGPGLLEEDNQWMT, the protein stability index was found to be 2.95.
On to FSPNSRQFNVSGPGLLEEDNQWMT, for which the protein stability index was 2.05.
For FSPNSTQFNVSGPGLLEEDNQWMT the value was 2.86; for FSPNSMQFNVSGPGLLEEDNQWMT, 2.03; for FSPNSVQFNVSGPGLLEEDNQWMT, 2.56.
On to FSPNSCQFNVSGPGLLEEDNQWMT, for which the protein stability index is 2.26.
FSPNSKQFNVSGPGLLEEDNQWMT: the protein stability index is 2.5.
With FSPNSYQFNVSGPGLLEEDNQWMT, the protein stability index is 1.92.
As to FSPNSEQFNVSGPGLLEEDNQWMT, the protein stability index came out at 3.88.
As for FSPNSDQFNVSGPGLLEEDNQWMT, the figure is 2.82; as for FSPNSGQFNVSGPGLLEEDNQWMT, 2.34; as for FSPNSPQFNVSMPGLLEEDNQWMT, 3.18.
Consider FSPNSPQFNVSFPGLLEEDNQWMT, for which the protein stability index was determined as 2.21.
With FSPNSPQFNVSKPGLLEEDNQWMT, the protein stability index was found to be 2.85.
FSPNSPQFNVSYPGLLEEDNQWMT: the protein stability index worked out at 2.14.
Turning to FSPNSPQFNVSDPGLLEEDNQWMT, the protein stability index was 3.13.
Take FSPNSPQFNVSAPGLLEEDNQWMT: the protein stability index came out at 2.85.
In the case of FSPNSPQFNVSLPGLLEEDNQWMT, the protein stability index is 2.47.
For FSPNSPQFNVSSPGLLEEDNQWMT the value was 3.13.
For the variant FSPNSPQFNVSIPGLLEEDNQWMT, the protein stability index is 2.42.
Consider FSPNSPQFNVSEPGLLEEDNQWMT, for which the protein stability index is 3.12.
For FSPNSPQFNVSVPGLLEEDNQWMT the value was 2.86; for FSPNSPQFNVSQPGLLEEDNQWMT, 3.04; for FSPNSPQFNVSPPGLLEEDNQWMT, 2.86.
Take FSPNSPQFNVSRPGLLEEDNQWMT: the protein stability index worked out at 2.7.
Regarding FSPNSPQFNVSWPGLLEEDNQWMT, the protein stability index stood at 1.74.
For FSPNSPQFNVSCPGLLEEDNQWMT, the protein stability index worked out at 2.04.
As for FSPNSPQFNVSHPGLLEEDNQWMT, the figure is 2.62; as for FSPNSPQFNVSTPGLLEEDNQWMT, 3.22.
For the variant FSPNSPQFNVSNPGLLEEDNQWMT, the protein stability index turned out to be 2.77.
For FSPNSPQFNVSGPWLLEEDNQWMT, the protein stability index turned out to be 1.96.
As for FSPNSPQFNVSGPHLLEEDNQWMT, the protein stability index was determined as 2.47.
On to FSPNSPQFNVSGPPLLEEDNQWMT, for which the protein stability index amounted to 3.17.
As to FSPNSPQFNVSGPLLLEEDNQWMT, the protein stability index is 2.62.
Consider FSPNSPQFNVSGPSLLEEDNQWMT, for which the protein stability index came out at 3.04.
On to FSPNSPQFNVSGPILLEEDNQWMT, for which the protein stability index was 2.29.
Consider FSPNSPQFNVSGPCLLEEDNQWMT, for which the protein stability index is 3.32.
For FSPNSPQFNVSGPNLLEEDNQWMT the value was 2.89; for FSPNSPQFNVSGPYLLEEDNQWMT, 2.22.
Regarding FSPNSPQFNVSGPQLLEEDNQWMT, the protein stability index amounted to 2.74.
In the case of FSPNSPQFNVSGPKLLEEDNQWMT, the protein stability index was 2.3.
In the case of FSPNSPQFNVSGPTLLEEDNQWMT, the protein stability index amounted to 2.52.
For FSPNSPQFNVSGPALLEEDNQWMT the value was 3.44; for FSPNSPQFNVSGPVLLEEDNQWMT, 2.89.
Regarding FSPNSPQFNVSGPELLEEDNQWMT, the protein stability index was 3.58.
As for FSPNSPQFNVSGPMLLEEDNQWMT, the protein stability index was determined as 2.35.
FSPNSPQFNVSGPFLLEEDNQWMT: the protein stability index is 2.35.
For FSPNSPQFNVSGPDLLEEDNQWMT the value was 3.73.
On to FSPNSPQFNVSGPRLLEEDNQWMT, for which the protein stability index worked out at 2.63.
On to FSPNSPQFNVSGPGDLEEDNQWMT, for which the protein stability index worked out at 3.7.
With FSPNSPQFNVSGPGCLEEDNQWMT, the protein stability index was found to be 3.04.
For FSPNSPQFNVSGPGMLEEDNQWMT the value was 3.22; for FSPNSPQFNVSGPGPLEEDNQWMT, 2.98.
Turning to FSPNSPQFNVSGPGFLEEDNQWMT, the protein stability index was 2.91.
Consider FSPNSPQFNVSGPGHLEEDNQWMT, for which the protein stability index stood at 3.19.
On to FSPNSPQFNVSGPGGLEEDNQWMT, for which the protein stability index was 2.91.
For FSPNSPQFNVSGPGKLEEDNQWMT, the protein stability index stood at 2.97.
Consider FSPNSPQFNVSGPGELEEDNQWMT, for which the protein stability index turned out to be 3.46.
In the case of FSPNSPQFNVSGPGQLEEDNQWMT, the protein stability index came to 3.06.
Consider FSPNSPQFNVSGPGNLEEDNQWMT, for which the protein stability index turned out to be 3.27.
For FSPNSPQFNVSGPGALEEDNQWMT the value was 3.26; for FSPNSPQFNVSGPGILEEDNQWMT, 2.98.
